Measured values taken from patent US7842469B2, “Bioluminescence resonance energy transfer (BRET) systems and methods of use thereof” (Stanford University, priority 2005, dated 2010).

Key:
[1] = Luciferase activity of purified RLuc mutants (light output integrated over 10 s, luminometer); format: biochemical; settings: relative to native enzyme; for Activity (relative to RLuc) bc: benzyl-coelenterazine; for Activity (relative to RLuc) bdc: bisdeoxycoelenterazine; for Activity (relative to RLuc) cp: coelenterazine-cp; for Activity (relative to RLuc) n: coelenterazine-n; for Activity (relative to RLuc) native: native coelenterazine
Source text: Luminometer Calibration: Light measurements were made using a Turner 20/20 and later a Turner 20/20n luminometer (Turner Designs, Sunnyvale, Calif.). The luminometers were calibrated to absolute units (photons/s) using the luminol light standard performed in dimethyl sulfoxide (DMSO). No corrections were applied for the spectral sensitivity of the luminometer, as the spectral peak of luminol chemiluminescence in DMSO (486 nm) is close to the spectral peak of Renilla Luciferase bioluminescence (482 nm).
Characterization of Renilla Luciferase Mutants: Luciferase activity was measured by adding 1 μl of sample (diluted as necessary in EB containing 1% HSA) to 100 μl room temperature 100 mM sodium phosphate buffer (pH 7), manually adding 1 μl of 0.5 μg/μl coelenterazine or analog, manually mixing, and reading for 10 s in a luminometer. The time between the addition of the luciferin and the start of measurement was approximately 4 s.

[2] = Serum stability in mouse serum at 37° C.; format: in vitro ADME; settings: mouse serum, 37° C., mono-exponential fit
Method: (§1) Serum stability measurements were done by mixing 0.5 μl dilute Luciferase with either 20 μl mouse serum or 50 μl rat serum (Equitech-Bio, Kerrville, Tex.) placing the sample in a 37° C. incubator, and removing aliquots for activity testing. To calculate serum half-lives, mono-exponential decay curves were fit to the serum stability data using a Nelder/Mead Simplex non-linear least squares minimization algorithm provided by the Octave numerical programming language. Emission spectra at ambient temperature were measured using a Triax 320 (Horiba Jobin Yvon, Edison, N.J.), which incorporates an optical grating device with a liquid N2 cooled CCD detector.

[3] = Serum stability in rat serum at 37° C.; format: in vitro ADME; settings: mono-exponential fit
Method: as §1

[4] = Bioluminescence emission spectra; format: physicochemical; settings: emission spectrum with native coelenterazine
Method: as §1

Molecule | Activity (relative to RLuc) bc [1] | Activity (relative to RLuc) bdc [1] | Activity (relative to RLuc) cp [1] | Activity (relative to RLuc) n [1] | Activity (relative to RLuc) native [1] | Serum τ1/2 (h) mouse [2] [h] | Serum τ1/2 (h) rat [3] [h] | Wavelength (nm) mean [4] [nm] | Wavelength (nm) peak [4] [nm]
C124A/F180A: RLuc mutant C124A/F180A (protein) MASKVYDPEQRKRMITGPQWWARCKQMNVLDSFINYYDSEKHAENAVIFLHGNAASSYLWRHVVPHIEPVARCIIPDLIGMGKSGKSGNGSYRLLDHYKYLTAWFELLNLPKKIIFVGHDWGAALAFHYSYEHQDKIKAIVHAESVVDVIESWDEWPDIEEDIALIKSEEGEKMVLENNAFVETMLPSKIMRKLEPEEFAAYLEPFKEKGEVRRPTLSWPREIPLVKGGKPDVVQIVRNYNAYLRASDDLPKMFIESDPGFFSNAIVEGAKKFPNTEFVKVKGLHFSQEDAPDEMGKYIKSFVERVLKNEQ | 0.01 | 0.01 | 0.03 | 0.01 | 0.02 | 1.6 | 1.6 | 504 | 488
C124A/F199M: RLuc mutant C124A/F199M (protein) MASKVYDPEQRKRMITGPQWWARCKQMNVLDSFINYYDSEKHAENAVIFLHGNAASSYLWRHVVPHIEPVARCIIPDLIGMGKSGKSGNGSYRLLDHYKYLTAWFELLNLPKKIIFVGHDWGAALAFHYSYEHQDKIKAIVHAESVVDVIESWDEWPDIEEDIALIKSEEGEKMVLENNFFVETMLPSKIMRKLEPEEMAAYLEPFKEKGEVRRPTLSWPREIPLVKGGKPDVVQIVRNYNAYLRASDDLPKMFIESDPGFFSNAIVEGAKKFPNTEFVKVKGLHFSQEDAPDEMGKYIKSFVERVLKNEQ | 0.44 | 0.46 | 0.53 | 0.49 | 0.58 | 6.7 | 6.0 | 495 | 480
C124A/Q235A: RLuc mutant C124A/Q235A (protein) MASKVYDPEQRKRMITGPQWWARCKQMNVLDSFINYYDSEKHAENAVIFLHGNAASSYLWRHVVPHIEPVARCIIPDLIGMGKSGKSGNGSYRLLDHYKYLTAWFELLNLPKKIIFVGHDWGAALAFHYSYEHQDKIKAIVHAESVVDVIESWDEWPDIEEDIALIKSEEGEKMVLENNFFVETMLPSKIMRKLEPEEFAAYLEPFKEKGEVRRPTLSWPREIPLVKGGKPDVVAIVRNYNAYLRASDDLPKMFIESDPGFFSNAIVEGAKKFPNTEFVKVKGLHFSQEDAPDEMGKYIKSFVERVLKNEQ | 1.1 | 1.2 | 1.1 | 1.0 | 1.2 | 3.3 | 3.6 | 489 | 473
C124A/M191L: RLuc mutant C124A/M191L (protein) MASKVYDPEQRKRMITGPQWWARCKQMNVLDSFINYYDSEKHAENAVIFLHGNAASSYLWRHVVPHIEPVARCIIPDLIGMGKSGKSGNGSYRLLDHYKYLTAWFELLNLPKKIIFVGHDWGAALAFHYSYEHQDKIKAIVHAESVVDVIESWDEWPDIEEDIALIKSEEGEKMVLENNFFVETMLPSKILRKLEPEEFAAYLEPFKEKGEVRRPTLSWPREIPLVKGGKPDVVQIVRNYNAYLRASDDLPKMFIESDPGFFSNAIVEGAKKFPNTEFVKVKGLHFSQEDAPDEMGKYIKSFVERVLKNEQ | 0.99 | 1.2 | 0.97 | 1.0 | 1.1 | 6.5 | 5.1 | 496 | 480
C124A/E195S/P196D: RLuc mutant C124A/E195S/P196D (protein) MASKVYDPEQRKRMITGPQWWARCKQMNVLDSFINYYDSEKHAENAVIFLHGNAASSYLWRHVVPHIEPVARCIIPDLIGMGKSGKSGNGSYRLLDHYKYLTAWFELLNLPKKIIFVGHDWGAALAFHYSYEHQDKIKAIVHAESVVDVIESWDEWPDIEEDIALIKSEEGEKMVLENNFFVETMLPSKIMRKLSDEEFAAYLEPFKEKGEVRRPTLSWPREIPLVKGGKPDVVQIVRNYNAYLRASDDLPKMFIESDPGFFSNAIVEGAKKFPNTEFVKVKGLHFSQEDAPDEMGKYIKSFVERVLKNEQ | 0.10 | 0.15 | 0.12 | 0.10 | 0.12 | 1.0 | 0.7 | 498 | 482
C124A/F262L: RLuc mutant C124A/F262L (protein) MASKVYDPEQRKRMITGPQWWARCKQMNVLDSFINYYDSEKHAENAVIFLHGNAASSYLWRHVVPHIEPVARCIIPDLIGMGKSGKSGNGSYRLLDHYKYLTAWFELLNLPKKIIFVGHDWGAALAFHYSYEHQDKIKAIVHAESVVDVIESWDEWPDIEEDIALIKSEEGEKMVLENNFFVETMLPSKIMRKLEPEEFAAYLEPFKEKGEVRRPTLSWPREIPLVKGGKPDVVQIVRNYNAYLRASDDLPKMFIESDPGFLSNAIVEGAKKFPNTEFVKVKGLHFSQEDAPDEMGKYIKSFVERVLKNEQ | 0.03 | 0.03 | 0.01 | 0.06 | 0.03 | 5.8 | 6.4 | 495 | 478

Continued, in another order:

Activity (relative to RLuc) bc [1] | Activity (relative to RLuc) bdc [1] | Activity (relative to RLuc) cp [1] | Activity (relative to RLuc) n [1] | Activity (relative to RLuc) native [1] | Molecule | Serum τ1/2 (h) mouse [2] [h] | Serum τ1/2 (h) rat [3] [h] | Wavelength (nm) mean [4] [nm] | Wavelength (nm) peak [4] [nm]
0.95 | 3.0 | 1.3 | 1.1 | 1.1 | C124A/S257G: RLuc mutant C124A/S257G (protein) MASKVYDPEQRKRMITGPQWWARCKQMNVLDSFINYYDSEKHAENAVIFLHGNAASSYLWRHVVPHIEPVARCIIPDLIGMGKSGKSGNGSYRLLDHYKYLTAWFELLNLPKKIIFVGHDWGAALAFHYSYEHQDKIKAIVHAESVVDVIESWDEWPDIEEDIALIKSEEGEKMVLENNFFVETMLPSKIMRKLEPEEFAAYLEPFKEKGEVRRPTLSWPREIPLVKGGKPDVVQIVRNYNAYLRASDDLPKMFIEGDPGFFSNAIVEGAKKFPNTEFVKVKGLHFSQEDAPDEMGKYIKSFVERVLKNEQ | 1.3 | 1.4 | 493 | 477
0.55 | 0.43 | 0.52 | 0.41 | 0.55 | C124A/L203R: RLuc mutant C124A/L203R (protein) MASKVYDPEQRKRMITGPQWWARCKQMNVLDSFINYYDSEKHAENAVIFLHGNAASSYLWRHVVPHIEPVARCIIPDLIGMGKSGKSGNGSYRLLDHYKYLTAWFELLNLPKKIIFVGHDWGAALAFHYSYEHQDKIKAIVHAESVVDVIESWDEWPDIEEDIALIKSEEGEKMVLENNFFVETMLPSKIMRKLEPEEFAAYREPFKEKGEVRRPTLSWPREIPLVKGGKPDVVQIVRNYNAYLRASDDLPKMFIESDPGFFSNAIVEGAKKFPNTEFVKVKGLHFSQEDAPDEMGKYIKSFVERVLKNEQ | 2.7 | 2.2 | 501 | 484
0.01 | 0.01 | 0.03 | 0.03 | 0.02 | C124A/G229E: RLuc mutant C124A/G229E (protein) MASKVYDPEQRKRMITGPQWWARCKQMNVLDSFINYYDSEKHAENAVIFLHGNAASSYLWRHVVPHIEPVARCIIPDLIGMGKSGKSGNGSYRLLDHYKYLTAWFELLNLPKKIIFVGHDWGAALAFHYSYEHQDKIKAIVHAESVVDVIESWDEWPDIEEDIALIKSEEGEKMVLENNFFVETMLPSKIMRKLEPEEFAAYLEPFKEKGEVRRPTLSWPREIPLVKGEKPDVVQIVRNYNAYLRASDDLPKMFIESDPGFFSNAIVEGAKKFPNTEFVKVKGLHFSQEDAPDEMGKYIKSFVERVLKNEQ | 1.9 | 1.8 | 490 | 473
